Laboratory results as given in patent US6432922 (CORVAS INTERNATIONAL, dated 2002).
Several values for one entry are separate records, joined by “and”; a condition that tells them apart may be missing. Equal entries are not always repeated. Non-standard residues stand in square brackets, D forms with d. Primed or numbered codes have the meaning given here. No end group written: not given here. *: point of attachment. cyclohexylmethylazacarbonyl = cyclohexylmethylazacarbonyl N-terminal cap, introduced with cyclohexylmethyl isocyanate, O=C(NCC1CCCCC1)*; benzylazacarbonyl = benzylazacarbonyl N-terminal cap (benzylaminocarbonyl), introduced with benzyl isocyanate, O=C(NCc1ccccc1)*; Argininal = arginine aldehyde, N=C(N)NCCC[C@@H](C=O)N*; argininal = arginine aldehyde, N=C(N)NCCC[C@@H](C=O)N*; aldehyde′ = argininal (arginine aldehyde) C-terminus; Propanoyl(3-cHex) = O=C(CCC1CCCCC1)*; Isobutyloxycarbonyl = CC(C)COC(=O)*; d(aThr) = C[C@@H](O)[C@@H](N)C(=O)O; cisHyp = O=C(O)[C@@H]1C[C@H](O)CN1; Isopropoxycarbonyl = CC(C)OC(=O)*; 3‑phenylpropyl = c1ccc(CCC*)cc1; d(hSer) = N[C@H](CCO)C(=O)O; Isovaleryl = CC(C)CC(=O)*; NMeA = CN[C@@H](C)C(=O)O; dAbu = CC[C@@H](N)C(=O)O; dDap = NC[C@@H](N)C(=O)O; Cbz = O=C(OCc1ccccc1)*; Sar = CNCC(=O)O

B1: Isobutyloxycarbonyl-D-seryl-L-alanyl-argininal (peptide)
peptide: isobutyloxycarbonyl-[dS]-Ala-[Argininal]
modifications: not fully specified (C-terminus); printed as i-Butoxycarbonyl-D-Ser-L-Ala-Argininal; also: trifluoroacetate salt

What was measured:
Assay in all cases: cell-based or functional assay
[1] = target: Human rt-PA (Activase), obtained from Genentech Inc. (human, UniProt P00750 36-562)
[2] = target: Purified human plasmin, obtained from Enzyme Research Laboratories, Inc. (human, UniProt P00747 97-810, limits assumed)
[3] = target: Urokinase (Abbokinase), manufactured by Abbott Laboratories (UniProt P00749 156-431)

Chain of Purified human plasmin, obtained from Enzyme Research Laboratories, Inc. (P00747 97-810 limits assumed): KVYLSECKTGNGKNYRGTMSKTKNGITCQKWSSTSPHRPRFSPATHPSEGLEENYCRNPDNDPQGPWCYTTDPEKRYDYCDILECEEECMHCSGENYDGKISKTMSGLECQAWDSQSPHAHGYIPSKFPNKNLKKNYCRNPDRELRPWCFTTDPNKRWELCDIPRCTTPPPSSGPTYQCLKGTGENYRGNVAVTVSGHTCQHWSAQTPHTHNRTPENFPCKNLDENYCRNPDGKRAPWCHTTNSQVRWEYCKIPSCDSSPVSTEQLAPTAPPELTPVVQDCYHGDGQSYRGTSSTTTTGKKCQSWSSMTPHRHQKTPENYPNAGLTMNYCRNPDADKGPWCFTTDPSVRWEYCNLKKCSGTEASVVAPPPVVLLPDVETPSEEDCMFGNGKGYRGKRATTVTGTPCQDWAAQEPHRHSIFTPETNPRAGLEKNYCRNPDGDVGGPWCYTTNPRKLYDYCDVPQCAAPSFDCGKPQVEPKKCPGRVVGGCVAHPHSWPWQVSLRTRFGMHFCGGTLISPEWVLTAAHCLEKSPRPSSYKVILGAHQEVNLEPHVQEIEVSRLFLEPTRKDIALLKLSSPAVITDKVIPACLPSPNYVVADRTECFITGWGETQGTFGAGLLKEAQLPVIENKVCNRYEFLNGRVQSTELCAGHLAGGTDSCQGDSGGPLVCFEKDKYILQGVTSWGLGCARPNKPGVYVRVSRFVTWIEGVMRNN
Chain of Human rt-PA (Activase), obtained from Genentech Inc. (P00750 36-562 limits assumed): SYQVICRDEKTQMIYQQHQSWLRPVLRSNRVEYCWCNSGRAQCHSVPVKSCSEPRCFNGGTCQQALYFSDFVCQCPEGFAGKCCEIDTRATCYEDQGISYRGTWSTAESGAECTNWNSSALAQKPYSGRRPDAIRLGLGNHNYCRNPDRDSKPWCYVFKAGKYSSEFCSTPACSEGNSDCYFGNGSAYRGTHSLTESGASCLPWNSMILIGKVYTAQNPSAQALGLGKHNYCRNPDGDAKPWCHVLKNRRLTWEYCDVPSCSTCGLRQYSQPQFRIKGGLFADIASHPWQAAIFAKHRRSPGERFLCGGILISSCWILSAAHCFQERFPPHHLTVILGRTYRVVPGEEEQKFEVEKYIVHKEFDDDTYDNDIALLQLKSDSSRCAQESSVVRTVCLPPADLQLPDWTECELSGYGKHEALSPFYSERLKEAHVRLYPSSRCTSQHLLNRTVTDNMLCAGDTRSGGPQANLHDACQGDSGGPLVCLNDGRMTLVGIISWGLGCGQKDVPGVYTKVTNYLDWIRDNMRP

Row | Binder | IC50 [1] | IC50 [2] | IC50 [3]
1 | Isopropoxycarbonyl-[dS]-Ala-[argininal] [isopropyloxycarbonyl-D-seryl-alanyl-argininal] | > 2500 nM | > 2500 nM | < 100 nM
2 | {2‑phenylethylsulfonyl}-[dS]-Ala-Arg-{aldehyde′} [2-phenylethylsulfonyl-D-seryl-alanyl-argininal] | > 2500 nM |  | < 100 nM
3 | benzylsulfonyl-[dS]-Ala-Arg-{aldehyde′} (also: trifluoroacetate salt) [Benzylsulfonyl-D-Ser-Ala-Arg-al, Trifluoroacetate Salt] | > 2500 nM |  | < 100 nM
4 | methyloxycarbonyl-[dS]-Ala-[argininal] [methyloxycarbonyl-D-seryl-alanyl-argininal] | > 2500 nM |  | < 100 nM
5 | Cbz-[dS]-Gly-Arg-{aldehyde′} [benzyloxycarbonyl-D-seryl-2-glycyl-argininal] | > 2500 nM |  | ≥ 100 nM and ≤ 250 nM
6 | {(−)menthyloxycarbonyl}-[dS]-Ala-[Argininal] [(-)menthyloxy-carbonyl-D-seryl-alanyl-argininal] | > 2500 nM |  | < 100 nM
7 | Cbz-[d(aThr)]-Ala-Arg-{aldehyde′} [benzyloxycarbonyl-D-allothreonyl-alanyl-argininal] | > 2500 nM |  | < 100 nM
8 | {3‑phenylpropyl}-[dS]-Ala-Arg-{aldehyde′} (also: trifluoroacetate salt) [N-α-(3-phenylpropyl)-D-seryl-alanyl-argininal, trifluoroacetate salt] | > 2500 nM |  | < 100 nM
9 | cyclohexylmethylazacarbonyl-[dS]-Ala-[argininal] [cyclohexylmethylazacarbonyl-D-seryl-alanyl-argininal] | > 2500 nM | > 2500 nM | ≥ 100 nM and ≤ 250 nM
10 | B1 | > 2500 nM |  | < 100 nM
11 | fluorenylmethyloxycarbonyl-[dS]-Ala-[argininal] [fluorenylmethyloxycarbonyl-D-seryl-alanyl-argininal] | > 2500 nM |  | < 100 nM
12 | Cbz-[d(aThr)]-[NMeA]-Arg-{aldehyde′} [benzyloxycarbonyl-D-allothreonyl-N-methylalanyl-argininal] |  |  | ≥ 100 nM and ≤ 250 nM
13 | Cbz-[dS]-[Sar]-[argininal] [benzyloxycarbonyl-D-seryl-sarcosyl-argininal] | > 2500 nM |  | 
14 | Cbz-[dAbu]-Ala-[argininal] [benzyloxycarbonyl-D-2-aminobutyryl-L-alanyl-argininal] | > 2500 nM |  | 
15 | Cbz-[dDap](methyloxycarbonyl)-Ala-[argininal] [N-α-benzyloxycarbonyl-N-β-methyloxycarbonyl-D-2,3-diaminopropionyl-alanyl-argininal] | > 2500 nM |  | 
16 | Cbz-[d(aThr)]-[Sar]-Arg-{aldehyde′} [benzyloxycarbonyl-D-allothreonyl-sarcosyl-argininal] |  |  | ≥ 100 nM and ≤ 250 nM
17 | Cbz-Thr-Ala-[argininal] [benzyloxycarbonyl-threonyl-alanyl-argininal] | > 2500 nM |  | ≥ 100 nM and ≤ 250 nM
18 | Cbz-[dS]-[cisHyp]-Arg-{aldehyde′} [benzyloxycarbonyl-D-seryl-L-cis-4-hydroxyprolyl-argininal] | > 2500 nM |  | < 100 nM
19 | {(+)menthyloxycarbonyl}-[dS]-Ala-[Argininal] [(+)menthyloxy-carbonyl-D-seryl-alanyl-argininal] | > 2500 nM |  | < 100 nM
20 | Isobutyloxycarbonyl-[dS]-Ala-Arg-{CO‑phenethylamide} (also: trifluoroacetate salt) [i-butoxycarbonyl-D-Ser-Ala-Arg-CO-phenethylamide, trifluoroacetate salt] | > 2500 nM |  | ≥ 100 nM and ≤ 250 nM
21 | benzenesulfonyl-[dS]-Ala-Arg-{aldehyde′} (also: trifluoroacetate salt) [Benzenesufonyl-D-Ser-L-Ala-L-Arg-al, Trifluoroacetate Salt] | > 2500 nM |  | < 100 nM

Row | Binder | IC50 [1] | IC50 [2] | IC50 [3]
22 | Cbz-[dA]-Ala-Arg-{aldehyde′} [benzyloxycarbonyl-D-alanyl-alanyl-argininal] |  |  | ≥ 100 nM and ≤ 250 nM
23 | Cbz-[dS]-Ala-[argininal] [benzyloxycarbonyl-D-seryl-alanyl-argininal] |  |  | < 100 nM
24 | {trans‑β‑styrenesulfonyl}-[dS]-Ala-[argininal] [trans-β-Styrenesulfonyl-D-seryl-L-alanyl-argininal] | > 2500 nM |  | < 100 nM
25 | Cbz-[dT]-Ala-[argininal] [benzyloxycarbonyl-D-threonyl-alanyl-argininal] | > 2500 nM |  | 
26 | {Propanoyl(3-cHex)}-[dS]-Ala-Arg-{aldehyde′} [3-cyclohexylpropionyl-D-seryl-alanyl-argininal] | > 2500 nM | > 2500 nM | 
27 | Cbz-[d(hSer)]-Pro-[argininal] [benzyloxycarbonyl-D-homoseryl-prolyl-argininal] | > 2500 nM | < 100 nM | ≥ 100 nM and ≤ 250 nM
28 | Cbz-[dS]-Ser-Arg-{aldehyde′} [benzyloxycarbonyl-D-seryl-L-seryl-argininal] | > 2500 nM |  | ≥ 100 nM and ≤ 250 nM
29 | Cbz-[dS]-Pro-[argininal] [benzyloxycarbonyl-D-seryl-prolyl-argininal] | > 2500 nM |  | < 100 nM
30 | phenoxycarbonyl-[dS]-Ala-[argininal] [phenoxycarbonyl-D-seryl-alanyl-argininal] | > 2500 nM |  | < 100 nM
31 | Cbz-[dDap](Cbz)-Ala-[argininal] [N-α-N-β-dibenzyloxycarbonyl-D-2,3-diaminopropionyl-alanyl-argininal] | > 2500 nM | ≥ 100 nM and ≤ 250 nM | ≥ 100 nM and ≤ 250 nM
32 | Cbz-[dDap](2‑phenylethylcarbonyl)-Ala-[argininal] [N-α-benzyloxycarbonyl-N-β-2-phenylethylcarbonyl-D-2,3-diaminopropionyl-alanyl-argininal] | > 2500 nM |  | 
33 | Cbz-[dT]-Pro-[argininal] [benzyloxycarbonyl-D-threonyl-prolyl-argininal] | > 2500 nM |  | ≥ 100 nM and ≤ 250 nM
34 | {n‑butyloxycarbonyl}-[dS]-Ala-[argininal] [n-butyloxycarbonyl-D-seryl-alanyl-argininal] | > 2500 nM |  | < 100 nM
35 | {2‑ethylhexyloxycarbonyl}-[dS]-Ala-Arg-{aldehyde′} [2-ethylhexyloxy-carbonyl-D-seryl-alanyl-argininal] | > 2500 nM |  | < 100 nM
36 | Cbz-[dS]-Cys(Me)-Arg-{aldehyde′} [benzyloxycarbonyl-D-seryl-S-methylcysteinyl-argininal] | > 2500 nM |  | ≥ 100 nM and ≤ 250 nM
37 | benzylazacarbonyl-[dS]-Ala-Arg-{aldehyde′} [benzylazacarbonyl-D-seryl-alanyl-argininal] | > 2500 nM | > 2500 nM | ≥ 100 nM and ≤ 250 nM
38 | Isovaleryl-[dS]-Ala-[argininal] [isovaleryl-D-seryl-alanyl-argininal] | > 2500 nM | > 2500 nM | 
39 | cyclohexylmethyloxycarbonyl-[dS]-Ala-[argininal] [cyclohexylmethyloxycarbonyl-D-seryl-alanyl-argininal] | > 2500 nM |  | < 100 nM
40 | {3‑phenylpropylsulfonyl}-[dS]-Ala-Arg-{aldehyde′} [3-phenylpropylsulfonyl-D-seryl-alanyl-argininal] | > 2500 nM |  | < 100 nM
41 | {2‑naphthyloxycarbonyl}-[dS]-Ala-Arg-{aldehyde′} [2-naphthyloxy-carbonyl-D-seryl-alanyl-argininal] | > 2500 nM |  | < 100 nM
42 | Cbz-Ser-Ala-[argininal] [benzyloxycarbonyl-seryl-alanyl-argininal] | > 2500 nM |  | 
